The sequences below were run on Escherichia coli TOP10 (assay: shrunken log2 fold change of peptide-encoding DNA abundance (4.5 h post-induction vs induction); higher = less antimicrobial activity (less host growth inhibition)). Details: time post-induction: 4.5 h; library: site-saturation at positions 5, 18, 19, 20.
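Also: peptides expressed intracellularly from a pBAD plasmid library in pooled LB shake-flask culture, induced with 0.3% L-arabinose, DNA abundance read by NGS, three biological replicates, DESeq2 with apeglm shrinkage.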

Sequence | shrunken log2 fold change
RRIRKRPPRLPRPRPRPSCQPRP | 0.176
RRIRMRPPRLPRPRPRPIAPPRP | 0.47
RRIRCRPPRLPRPRPRPATSPRP | 0.0157
RRIRKRPPRLPRPRPRPCGWPRP | 0.179
RRIRYRPPRLPRPRPRPCNIPRP | -0.463
RRIRRRPPRLPRPRPRPSLDPRP | 0.34
RRIRMRPPRLPRPRPRPQVPPRP | -0.0842
RRIRSRPPRLPRPRPRPTCTPRP | 0.342
RRIRIRPPRLPRPRPRPNLHPRP | -0.623
RRIRWRPPRLPRPRPRPECMPRP | 0.623
RRIRNRPPRLPRPRPRPLKLPRP | -0.207
RRIRVRPPRLPRPRPRPVGMPRP | -0.0289
RRIRQRPPRLPRPRPRPSLFPRP | -0.11
RRIRNRPPRLPRPRPRPIADPRP | 0.0461
RRIRMRPPRLPRPRPRPLQYPRP | -0.106
RRIRWRPPRLPRPRPRPLRRPRP | 0.587
RRIRQRPPRLPRPRPRPTSAPRP | 0.257
RRIRLRPPRLPRPRPRPPVMPRP | 0.154
RRIRGRPPRLPRPRPRPSQLPRP | 0.461
RRIRARPPRLPRPRPRPIVYPRP | -0.248
RRIRMRPPRLPRPRPRPEKSPRP | 2
RRIRRRPPRLPRPRPRPTEQPRP | -0.0468

Sequence | shrunken log2 fold change
RRIRWRPPRLPRPRPRPEGEPRP | 1.27
RRIRIRPPRLPRPRPRPIKKPRP | -0.0505
RRIRPRPPRLPRPRPRPIWAPRP | 0.384
RRIRDRPPRLPRPRPRPYTVPRP | -0.00865
RRIRMRPPRLPRPRPRPRGAPRP | 1.44
RRIRPRPPRLPRPRPRPYCNPRP | -0.481
RRIRARPPRLPRPRPRPRYIPRP | -0.0261
RRIRMRPPRLPRPRPRPNDNPRP | 0.504
RRIRNRPPRLPRPRPRPAIYPRP | -0.425
RRIRPRPPRLPRPRPRPARMPRP | 0.487
RRIRLRPPRLPRPRPRPQKDPRP | -0.449
RRIRVRPPRLPRPRPRPGWSPRP | 0.434
RRIRNRPPRLPRPRPRPQWHPRP | -0.481
RRIRIRPPRLPRPRPRPWCDPRP | -0.769
RRIRDRPPRLPRPRPRPFCVPRP | 0.483
RRIRARPPRLPRPRPRPETYPRP | 0.0388
RRIRPRPPRLPRPRPRPISYPRP | -0.163
RRIRFRPPRLPRPRPRPDNYPRP | -0.12
RRIRNRPPRLPRPRPRPAWPPRP | 0.408
RRIRYRPPRLPRPRPRPTEGPRP | -0.96
RRIRTRPPRLPRPRPRPYYFPRP | -0.783
RRIRWRPPRLPRPRPRPKCNPRP | 0.136

Sequence | shrunken log2 fold change
RRIRWRPPRLPRPRPRPPRRPRP | 0.642
RRIRHRPPRLPRPRPRPCMKPRP | 0.0319
RRIRARPPRLPRPRPRPNVSPRP | -0.11
RRIRPRPPRLPRPRPRPFRGPRP | 0.0377
RRIRNRPPRLPRPRPRPFTPPRP | -0.197
RRIRRRPPRLPRPRPRPGVMPRP | 0.245
RRIRLRPPRLPRPRPRPPQAPRP | 0.872
RRIRMRPPRLPRPRPRPEGPPRP | 0.578
RRIRFRPPRLPRPRPRPECKPRP | -0.0133
RRIRCRPPRLPRPRPRPLSRPRP | -0.143
RRIRPRPPRLPRPRPRPTGRPRP | 0.459
RRIRDRPPRLPRPRPRPEVEPRP | 1.68
RRIRIRPPRLPRPRPRPKYGPRP | -0.284
RRIRLRPPRLPRPRPRPDFCPRP | -0.0853
RRIRCRPPRLPRPRPRPPWCPRP | -0.123
RRIRARPPRLPRPRPRPPYLPRP | -0.188
RRIRKRPPRLPRPRPRPEKMPRP | -0.0217
RRIRDRPPRLPRPRPRPSKLPRP | -0.317
RRIRPRPPRLPRPRPRPNTGPRP | 0.881
RRIRCRPPRLPRPRPRPVVMPRP | -0.138
RRIRDRPPRLPRPRPRPCQMPRP | -0.00455
RRIRPRPPRLPRPRPRPRHAPRP | 0.502

Sequence | shrunken log2 fold change
RRIRIRPPRLPRPRPRPCRPPRP | -0.0283
RRIRGRPPRLPRPRPRPMNVPRP | -0.176
RRIRTRPPRLPRPRPRPPCCPRP | 0.00432
RRIRDRPPRLPRPRPRPDEVPRP | -0.01
RRIRGRPPRLPRPRPRPKCKPRP | 0.51
RRIRERPPRLPRPRPRPQCHPRP | -0.449
RRIRPRPPRLPRPRPRPHEFPRP | 0.253
RRIRARPPRLPRPRPRPHHWPRP | 0.145
RRIRQRPPRLPRPRPRPNPRPRP | 0.0565
RRIRLRPPRLPRPRPRPNRPPRP | -0.0609
RRIRFRPPRLPRPRPRPYSMPRP | -0.417
RRIRQRPPRLPRPRPRPDNSPRP | -0.0422
RRIRDRPPRLPRPRPRPQSVPRP | -0.0496
RRIRMRPPRLPRPRPRPATCPRP | 0.398
RRIRLRPPRLPRPRPRPIRNPRP | -0.45
RRIRDRPPRLPRPRPRPMHGPRP | -0.123
RRIRSRPPRLPRPRPRPEIEPRP | 0.0942
RRIRNRPPRLPRPRPRPWHSPRP | -0.496
RRIRIRPPRLPRPRPRPLADPRP | -0.0519
RRIRQRPPRLPRPRPRPQYEPRP | -0.349
RRIRMRPPRLPRPRPRPRVCPRP | 0.545
RRIRDRPPRLPRPRPRPCISPRP | 0.0261

Sequence | shrunken log2 fold change
RRIRRRPPRLPRPRPRPFSQPRP | -0.422
RRIRDRPPRLPRPRPRPRVGPRP | 0.972
RRIRDRPPRLPRPRPRPYPWPRP | -0.136
RRIRYRPPRLPRPRPRPVFYPRP | -1.05
RRIRHRPPRLPRPRPRPHFEPRP | 0.0715
RRIRQRPPRLPRPRPRPIMMPRP | -0.0173
RRIRARPPRLPRPRPRPCGVPRP | 0.255
RRIRSRPPRLPRPRPRPTKLPRP | 0.0448
RRIRDRPPRLPRPRPRPQFTPRP | 0.0284
RRIRDRPPRLPRPRPRPYYQPRP | -1.03
RRIRARPPRLPRPRPRPPPGPRP | 1.16
RRIRGRPPRLPRPRPRPHFGPRP | 0.242
RRIRARPPRLPRPRPRPCACPRP | 0.0599
RRIRYRPPRLPRPRPRPTYTPRP | -0.802
RRIRSRPPRLPRPRPRPYLQPRP | -0.176
RRIRMRPPRLPRPRPRPWFLPRP | 0.0242
RRIRCRPPRLPRPRPRPALWPRP | 0.621
RRIRFRPPRLPRPRPRPNRRPRP | 0.048
RRIRQRPPRLPRPRPRPFLAPRP | 0.286
RRIRSRPPRLPRPRPRPRWCPRP | 0.051
RRIRSRPPRLPRPRPRPNISPRP | 0.00233
